Test results from PMC9747964 (Nature Communications, 2022).

How the values were obtained:
Conditions in all cases: protein: recombinant; tags: as P1; blunt
ComEAGs-A108Y [1] = target: T1, ComEAGs-A108Y (Geobacillus stearothermophilus (ATCC …, UniProt A0A0K9HI54 60-207, A108Y)); test: MW-AUC; 1.5 uM DNA, 5:1 and 10:1 protein:DNA; >90% DNA bound; ~2:1 complex, 3.3-3.5 S; MW-AUC: 10 mM Tris pH 8, 100 mM KCl, 20 C; EMSA: 10 mM Tris pH 8, 100 mM KCl, 2.5% glycerol, 0.5 mM EDTA, 1 mM MgCl2, room temperature 15 min, 8% native gel in
T1 sequence: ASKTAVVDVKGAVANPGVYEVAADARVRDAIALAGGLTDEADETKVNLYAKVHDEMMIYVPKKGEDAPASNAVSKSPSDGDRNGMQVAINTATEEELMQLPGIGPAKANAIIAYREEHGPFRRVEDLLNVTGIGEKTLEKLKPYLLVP

ComEAGs-A108Y [2] = target: T1, ComEAGs-A108Y; test: MW-AUC; 1.5 uM DNA, 10:1 protein:DNA; >90% DNA bound; ~4.7:1 complex, 6.3 S; MW-AUC: 10 mM Tris pH 8, 100 mM KCl, 20 C; EMSA: 10 mM Tris pH 8, 100 mM KCl, 2.5% glycerol, 0.5 mM EDTA, 1 mM MgCl2, room temperature 15 min, 8% native gel in
ComEAGs-K166A = target: T2, ComEAGs-K166A (Geobacillus stearothermophilus (ATCC …, UniProt A0A0K9HI54 60-207, K166A)); test: EMSA; 0.5 uM DNA, 1 mM MgCl2; MW-AUC: 10 mM Tris pH 8, 100 mM KCl, 20 C; EMSA: 10 mM Tris pH 8, 100 mM KCl, 2.5% glycerol, 0.5 mM EDTA, 1 mM MgCl2, room temperature 15 min, 8% native gel in
T2 sequence: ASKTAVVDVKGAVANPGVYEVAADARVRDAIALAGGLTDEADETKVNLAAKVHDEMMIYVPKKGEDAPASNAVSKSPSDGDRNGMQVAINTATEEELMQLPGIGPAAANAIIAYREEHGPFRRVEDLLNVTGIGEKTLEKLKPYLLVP

ComEAGs-K201A = target: T3, ComEAGs-K201A (Geobacillus stearothermophilus (ATCC …, UniProt A0A0K9HI54 60-207, K201A)); test: as above
T3 sequence: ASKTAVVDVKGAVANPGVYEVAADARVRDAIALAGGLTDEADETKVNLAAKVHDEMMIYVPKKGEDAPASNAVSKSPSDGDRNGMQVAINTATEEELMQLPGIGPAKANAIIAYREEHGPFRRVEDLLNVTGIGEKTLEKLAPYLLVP

B1: EAGs14bp (dsDNA)
DNA 1: GTAGGACCATCTGC
DNA 2: GCAGATGGTCCTAC
binding result (ComEAGs-A108Y [1]): binds

B2: EAGs40bp (dsDNA)
DNA 1: CGTTAGCACTGTGAATATCACTACAGCAACCTTAGAATCG
DNA 2: CGATTCTAAGGTTGCTGTAGTGATATTCACAGTGCTAACG
binding result (ComEAGs-A108Y [2]): binds

B3: EAGs30bp (dsDNA)
DNA 1: GCACTGTGAATATCACTACAGCAACCTTAG
DNA 2: CTAAGGTTGCTGTAGTGATATTCACAGTGC
binding result (ComEAGs-K166A): no binding
binding signal (ComEAGs-K201A): ~2 fold decrease in apparent affinity vs wild-type
